{"source": "patent US20030138873A1", "about": "“Tissue engineered cartilage for drug discovery” (priority 2002, published 2003)", "molecules": {"B1": {"name": "IL-1: cytokine interleukin-1 (IL-1α), known modulator inducing cartilage matrix degradation, used at 1 ng/ml (protein, UniProt P01583 113-271, looked up)", "Interleukin-1 alpha": "SAPFSFLSNVKYNFMRIIKYEFILNDALNQSIIRANDQYLTAAALHNLDEAVKFDMGAYKSSKDDAKITVILRISKTQLYVTAQDEDQPVLLKEMPEIPKTITGSETNLLFFWETHGTKNYFTSVAHPNLFIATKQDYWVCLAGGPPSITDFQILENQA"}}, "key": {"[1]": {"tested_on": "engineered cartilage tissue", "assay": "Cartilage matrix turnover measured without radiolabelling (PG content by DMMB method)", "format": "cell-based, bovine", "protocol": "(§1) Engineered Cartilage Tissue Formation: Engineered cartilage tissue was prepared as described in U.S. Pat. No. 6,197,061. Briefly, bovine articular chondrocytes were isolated from steer (14-18 months) and cultured in beads of 1.2% low viscosity alginate (Keltone LV, Kelco) at 4 million cells/ml in daily changes of medium containing 20% FBS, 25 μg/ml ascorbate and 10 μg/ml gentamicin, as described above in Mok, et al. On day 7, beads were dissolved by incubation for 20 minutes in 55 mM NaCitrate in 150 mM NaCl. The cells with their CM (cellular matrix) were recovered by mild centrifugation. The cells with their CM were resuspended in complete medium and seeded onto a tissue culture insert (0.4 μm pore size; 23 mm diameter, Falcon). After 7 and 21 days in culture, the de novo formed tissue was separated from the porous membrane and 4 mm diameter discs were punched out using a skin biopsy punch.\nDiscs of engineered cartilage tissue was punched out from engineered cartilage tissue on day 7 and cultured for 5 days in complete medium with/without IL-1α (1 ng/ml). Engineered cartilage tissue was obtained as described above. On days 1, 2, 3 and 5, the discs were harvested and digested with papain. After digestion the contents of sulfated PG and DNA were measured by the DMMB method and Hoechst 33258-dye method, respectively. […]"}, "[2]": {"tested_on": "engineered cartilage tissue", "assay": "Cartilage matrix turnover measured using radiolabelling (35S-proteoglycan chase)", "format": "cell-based, bovine", "settings": "for T½ of 35S-PGs in the tissue (loss of 35S-PGs) / T½ of 35S-PGs, bimodal rate of disappearance from the tissue: IL-1α 1 ng/ml; for T½ of 35S-PGs in the tissue (loss of 35S-PGs): 7-day chase; for T½ of 35S-PGs, bimodal rate of disappearance from the tissue: double exponential decay fit", "protocol": "as §1\nDiscs of engineered cartilage tissue were punched out from engineered cartilage tissue on day 7 and 21 and were incubated for 16 h in complete medium containing ^35S-sulfate (20 μCi/ml). After washing to remove unincorporated radioisotope, the discs were cultured for 7 days in isotope-free medium with or without IL-1α (1 ng/ml). The medium in all cases was changed and collected for the measurement of ^35S-labeled proteoglycans (^35S-PGs). At various times, discs were collected and the content of ^35S-PGs in each disc and the corresponding spent medium fraction was measured by a rapid filtration assay (4). For each set of conditions (i.e. with or without IL-1α) the amount of radiolabeled PGs remaining in each matrix pool was plotted against time of chase to measure the average half-life of ^35S-PGs in each compartment. The data were fitted to the double exponential decay equation: y=ae^−bx+ce^−d+e and the half-life calculated based on b and d. Mok, et al., Aggrecan synthesized by mature bovine chondrocytes suspended in alginate: Identification of two distinct metabolic matrix pool, Biol. Chem., 269, 33021-33027 (1994)"}, "[3]": {"settings": "tissue radiolabeled on day 7 [1W]"}, "[4]": {"settings": "tissue radiolabeled on day 21 [3W]"}}, "data": [{"molecule": "B1", "values": [{"measurement": "loss of the PGs from the engineered cartilage tissue", "setting": "[1]; IL-1 at 1 ng/ml, single day of treatment, day 7 discs", "result": 50, "unit": "%"}, {"measurement": "loss of proteoglycan content of engineered cartilage matrix", "setting": "[1]; within a single day after treatment with IL-1", "result": "roughly half"}, {"measurement": "T½ of 35S-PGs in the tissue (loss of 35S-PGs)", "setting": "[2]; [3]", "result": 41.5, "unit": "h"}, {"measurement": "T½ of 35S-PGs, bimodal rate of disappearance from the tissue", "setting": "[2]; [3]", "result": 3.6, "unit": "h"}, {"measurement": "T½ of 35S-PGs in the tissue (loss of 35S-PGs)", "setting": "[2]; [4]", "result": 49.9, "unit": "h"}, {"measurement": "T½ of 35S-PGs, bimodal rate of disappearance from the tissue", "setting": "[2]; [4]", "result": 35.5, "unit": "h"}, {"measurement": "appearance in the medium of 35S-PGs", "setting": "[2]; addition of IL-1 to the medium (1 ng/ml)", "result": "rapid increase"}]}]}
